Measured values from paper PMC8427598, “Identification and Characterization of an Antennae-Specific Glutathione S-Transferase From the Indian Meal Moth” (Frontiers in Physiology, 2021).

Tested on: O=[N+]([O-])c1ccc(Cl)c([N+](=O)[O-])c1
Experiment: purified protein
Settings: 50 mM GSH, acetate-phosphate buffer pH 7.5 (b1, b25; b45 prints optimum pH 7.0), 35 °C

Work on PiGSTd1 (Plodia interpunctella) yielded a Km of 229.2 ± 18.05 µM.
